Literature values, collected in article PMC7314768.

Experiments:
Cys145 = Cys145 (UniProt position 3385, FLNGSCGSVGF)
His41 = His41 (UniProt position 3281, VYCPRHVICTA)

## 3C-like main protease (3CL Mpro, 3CLpro, nsp5) of SARS coronavirus (Severe acute respiratory syndrome coronavirus (SARS-CoV))
Cys145
  pKa: 8.0 ± 0.3
His41
  pKa: 6.3 ± 0.1
